Sequences and labels used below:
B1: RecA (native, untagged) (enzyme, Bacillus subtilis, UniProt P16971 1-348, looked up)
chain: MSDRQAALDMALKQIEKQFGKGSIMKLGEKTDTRISTVPSGSLALDTALGIGGYPRGRIIEVYGPESSGKTTVALHAIAEVQQQGGQAAFIDAEHALDPVYAQKLGVNIEELLLSQPDTGEQALEIAEALVRSGAVDIVVVDSVAALVPKAEIEGDMGDSHVGLQARLMSQALRKLSGAINKSKTIAIFINQIREKVGVMFGNPETTPGGRALKFYSSVRLEVRRAEQLKQGNDVMGNKTKIKVVKNKVAPPFRTAEVDIMYGEGISKEGEIIDLGTELDIVQKSGSWYSYEEERLGQGRENAKQFLKENKDIMLMIQEQIREHYGLDNNGVVQQQAEETQEELEFEE
notes: Bacillus subtilis recombinase RecA; purified protein of 38.0 kDa; The printed mass of 38.0 kDa fits the whole protein; also called native RecA; apo RecA; source: B. subtilis BG214 bearing pBT61-borne recA, over-expressed and purified
B2: His-tagged DisA (enzyme, Bacillus subtilis, UniProt P37573 1-360, looked up)
chain: MEKEKKGAKHELDLSSILQFVAPGTPLRAGMENVLRANTGGLIVVGYNDKVKEVVDGGFHINTAFSPAHLYELAKMDGAIILSDSGQKILYANTQLMPDATISSSETGMRHRTAERVAKQTGCLVIAISERRNVITLYQENMKYTLKDIGFILTKANQAIQTLEKYKTILDKTINALNALEFEELVTFSDVLSVMHRYEMVLRIKNEINMYIKELGTEGHLIKLQVIELITDMEEEAALFIKDYVKEKIKDPFVLLKELQDMSSYDLLDDSIVYKLLGYPASTNLDDYVLPRGYRLLNKIPRLPMPIVENVVEAFGVLPRIIEASAEELDEVEGIGEVRAQKIKKGLKRLQEKHYLDRQL

The experiment “His-tagged DisA” concerns the target B2. Description: pull-down; His-tagged DisA and native RecA (1.5 μg each) loaded on a 50-μl Ni2+ microcolumn, room temperature, Buffer A (50 mM Tris-HCl pH 7.5, 50 mM NaCl, 10 mM MgCl2, 5% glycerol) with 20 mM imidazole, without ssDNA and ATP; eluted with 1 M NaCl and 400 mM imidazole; SDS-PAGE, Coomassie and Western blot. To be noted: both partners purified. (In general: Immunoblotting shows a protein as a band on a membrane.)

The experiment “RecA (native, untagged)” addresses B1. As to the kind of experiment: cell-based or functional assay.

Regarding B1, the binding result with His-tagged DisA was “binds”.
Consider B2, for which the “RecA-mediated three-strand DNA exchange with SsbA and RecO in ATPγS, fold reduction at a DisA:RecA molar ratio of 1:48” value with RecA (native, untagged) is roughly 18 fold.

(Values after publication PMC6547438, “Bacillus subtilis DisA regulates RecA-mediated DNA strand exchange” (Nucleic Acids Research, 2019).)
